One substance from article PMC7145421 can be followed below.

In the experiment the target is PKR (endogenous) (UniProt Q03963). Description: FLAG co-immunoprecipitation, western blot. The following applies: reference: FLAG-WT PACT; sites S246.

For the substance “PACT (FLAG-tagged wild type and mutant constructs) (from UniProt O75569) FLAG-S246A PACT”, the “binding against the reference” value is “weaker”.
